Numbering of substitutions follows the chain as printed. Names and notes keep the numbering of the source. Where two headings read alike, the source gives them in different places. Blank lines part the entries; values can stand above or below the molecule they belong to.
What was measured:
[1] = biological target: T1, FtsZ (purified, C. crescentus) (Caulobacter crescentus, UniProt B8H080 1-508)
T1 sequence (looked up): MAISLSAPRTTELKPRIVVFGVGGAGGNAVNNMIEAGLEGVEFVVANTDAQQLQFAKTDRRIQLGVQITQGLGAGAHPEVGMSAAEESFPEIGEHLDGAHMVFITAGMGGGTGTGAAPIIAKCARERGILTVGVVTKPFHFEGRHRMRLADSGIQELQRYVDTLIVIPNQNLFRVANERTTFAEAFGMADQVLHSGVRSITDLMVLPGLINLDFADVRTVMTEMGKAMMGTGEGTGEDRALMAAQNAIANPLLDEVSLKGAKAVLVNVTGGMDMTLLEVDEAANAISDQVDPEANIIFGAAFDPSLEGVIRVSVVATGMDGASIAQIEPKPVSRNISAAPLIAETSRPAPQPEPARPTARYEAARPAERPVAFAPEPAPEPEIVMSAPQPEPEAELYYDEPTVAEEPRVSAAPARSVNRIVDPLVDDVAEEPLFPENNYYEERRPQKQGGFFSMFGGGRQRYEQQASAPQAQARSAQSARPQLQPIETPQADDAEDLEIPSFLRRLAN

[2] = biological target: T1, FtsZ (purified, C. crescentus); assay: co-sedimentation; high speed co-pelleting: 4 µM FzlA variant ± 2 µM FtsZ, 50 mM MES pH 6.5, 50 mM KCl, 10 mM MgCl2, 2 mM GTP, 0.05% Triton X-100, 15 min room temperature, 280 000 x g 15 min 25°C; Coomassie gel quantified; details: both partners purified
[3] = biological target: T1, FtsZ (purified, C. crescentus); assay: co-sedimentation; low speed co-pelleting (higher order structures): 4 µM FzlA variant ± 2 µM FtsZ, 50 mM MES pH 6.5, 50 mM KCl, 2.5 mM MgCl2, 2 mM GTP, 16 000 x g 15 min room temperature; details: both partners purified
[4] = biological target: T1, FtsZ (purified, C. crescentus); assay: cell-based or functional assay

B1: untagged WT FzlA (natural protein, Caulobacter crescentus)
chain: MSVERTLHHFPLDPASRQVRLALGEKRLPFVEMQVRYWEMPPEFTSLNPSGMPPVLVETKHQRNLVICETRAILEHIEETETEPPLLGRDPAERAEARRLLQWFDRKFDNEVNGFLLHEKMEKRLLRMGAPDLAALRQGREALRMHLGYIESLLQTRDWLAGRRMSLADFAAAAHLSVIDYFGDVPWKDFQAAKTWYMKLKSRPCFRPILADRWPGLAPAAHYDDLDF
notes: FzlA, Caulobacter crescentus; source: E. coli Rosetta (DE3) pLysS, purified (HisTrap, His6-SUMO cleaved with His6-ULP, second HisTrap flow through)
fold change of FzlA in pellet (with FtsZ vs. alone), high speed [2]: 20.4 fold
fold change of FzlA in pellet (with FtsZ vs. alone), low speed [3]: 11.1 fold

B2: FzlA^NB2 (E119K) (natural protein, Caulobacter crescentus)
chain: B1 chain with E119K
notes: FzlA, Caulobacter crescentus, with E119K; source: E. coli Rosetta (DE3) pLysS, purified (HisTrap, His6-SUMO cleaved)
fold change of FzlA in pellet (with FtsZ vs. alone), high speed [2]: 1.24 fold
fold change of FzlA in pellet (with FtsZ vs. alone), low speed [3]: 1.18 fold
% of FtsZ GTPase rate [4]: 98.9%

B3: FzlA^NB1 (W38A R124D) (natural protein, Caulobacter crescentus)
chain: B1 chain with W38A, R124D
notes: FzlA, Caulobacter crescentus, with W38A R124D; Self-aggregates under the standard conditions (pH 6.5, 2:1 FzlA:FtsZ); source: E. coli Rosetta (DE3) pLysS, purified (HisTrap, His6-SUMO cleaved)
fold change of FzlA in pellet (with FtsZ vs. alone), high speed [2]: 0.91 fold
fold change of FzlA in pellet (with FtsZ vs. alone), low speed [3]: 1.25 fold
% of FtsZ GTPase rate [4]: 96.3%

B4: FzlA^NH1 (P131A L136A R137E) (natural protein, Caulobacter crescentus)
chain: B1 chain with P131A, L136A, R137E
notes: FzlA, Caulobacter crescentus, with P131A L136A R137E; also called no helices; source: E. coli Rosetta (DE3) pLysS, purified (HisTrap, His6-SUMO cleaved)
fold change of FzlA in pellet (with FtsZ vs. alone), high speed [2]: 2.34 fold
% of FtsZ GTPase rate [4]: 86.2%

Second part, the molecule after the results:

% of FtsZ GTPase rate [1]: 85.5%
Molecule: FzlA^WB1 (D109R E122K) (from UniProt A0A0H3CDY2 1-228) (natural protein)

fold change of FzlA in pellet (with FtsZ vs. alone), high speed [2]: 9.85 fold
fold change of FzlA in pellet (with FtsZ vs. alone), low speed [3]: 9.86 fold
% of FtsZ GTPase rate [4]: 55.7%
B5: FzlA^UN1 (P131A) (natural protein, Caulobacter crescentus)
chain: B1 chain with P131A
notes: FzlA, Caulobacter crescentus, with P131A; also called unknown nonessential activity; source: E. coli Rosetta (DE3) pLysS, purified (HisTrap, His6-SUMO cleaved)

fold change of FzlA in pellet (with FtsZ vs. alone), high speed [2]: 5.85 fold
fold change of FzlA in pellet (with FtsZ vs. alone), low speed [3]: 6.1 fold
% of FtsZ GTPase rate [4]: 77.3%
B6: FzlA^UE1 (Y223A D227K F228A) (natural protein, Caulobacter crescentus)
chain: B1 chain with Y223A, D227K, F228A
notes: FzlA, Caulobacter crescentus, with Y223A D227K F228A; also called unknown essential activity; source: E. coli Rosetta (DE3) pLysS, purified (HisTrap, His6-SUMO cleaved)

fold change of FzlA in pellet (with FtsZ vs. alone), high speed [2]: 59 fold
fold change of FzlA in pellet (with FtsZ vs. alone), low speed [3]: 12.3 fold
% of FtsZ GTPase rate [4]: 42.6%
B7: FzlA^UE2 (D227K) (natural protein, Caulobacter crescentus)
chain: B1 chain with D227K
notes: FzlA, Caulobacter crescentus, with D227K; also called unknown essential activity; source: E. coli Rosetta (DE3) pLysS, purified (HisTrap, His6-SUMO cleaved)

fold change of FzlA in pellet (with FtsZ vs. alone), high speed [2]: 3.51 fold
% of FtsZ GTPase rate [4]: 89%
B8: FzlA^NH3 (R144D) (natural protein, Caulobacter crescentus)
chain: B1 chain with R144D
notes: FzlA, Caulobacter crescentus, with R144D; also called no helices; source: E. coli Rosetta (DE3) pLysS, purified (HisTrap, His6-SUMO cleaved)

fold change of FzlA in pellet (with FtsZ vs. alone), high speed [2]: 7.21 fold
% of FtsZ GTPase rate [4]: 85%
B9: FzlA^NH2 (R140D E141K) (natural protein, Caulobacter crescentus)
chain: B1 chain with R140D, E141K
notes: FzlA, Caulobacter crescentus, with R140D E141K; also called no helices; source: E. coli Rosetta (DE3) pLysS, purified (HisTrap, His6-SUMO cleaved)

— article PMC5760450, “FzlA, an essential regulator of FtsZ filament curvature, controls constriction rate during Caulobacter division” (Molecular Microbiology, 2017)
